Assay results published in US20250270301A1.

How the values were obtained:
[1] = target: aggregated (oligomeric) P301S 2N4R tau, pHrodo-labelled (human) (UniProt P10636); assay: cell-based or functional assay
[2] = target: monomeric P301S 2N4R tau, pHrodo-labelled (human) (UniProt P10636); assay: cell-based or functional assay
Sequence of monomeric P301S 2N4R tau, pHrodo-labelled (human) (P10636 other isoform, or with tags, fused parts or gaps P301S P301S): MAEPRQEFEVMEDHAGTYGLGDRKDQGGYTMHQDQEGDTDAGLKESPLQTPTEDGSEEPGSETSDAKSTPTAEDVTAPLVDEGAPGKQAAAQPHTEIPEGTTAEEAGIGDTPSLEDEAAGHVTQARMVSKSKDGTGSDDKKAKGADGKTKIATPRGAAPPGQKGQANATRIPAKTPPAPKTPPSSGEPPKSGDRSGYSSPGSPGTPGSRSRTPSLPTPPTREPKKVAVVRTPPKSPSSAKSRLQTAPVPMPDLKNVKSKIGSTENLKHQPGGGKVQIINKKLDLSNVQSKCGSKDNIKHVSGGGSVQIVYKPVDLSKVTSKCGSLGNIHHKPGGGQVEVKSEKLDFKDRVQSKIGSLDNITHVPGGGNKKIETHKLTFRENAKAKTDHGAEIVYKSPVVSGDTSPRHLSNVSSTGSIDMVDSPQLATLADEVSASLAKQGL

Sequence of aggregated (oligomeric) P301S 2N4R tau, pHrodo-labelled (human) (P10636 other isoform, or with tags, fused parts or gaps P301S P301S): as above

inhibition of aggregated tau uptake into human iPSC-derived neurons [1]: 14.3%
inhibition of monomeric tau uptake into human iPSC-derived neurons [2]: 6.2%
Substance: isotype control human IgG1 (anti-fluorescein, Absolute Antibody)
